The target in the test is soluble MERTK ectodomain (MERTK^ED-His). In words: SPR; Biacore T200, room temperature; […]; HBS-EP (10 mM HEPES pH 7.4, 150 mM NaCl, 0.05% Tween 20). Background: SPR reads the build-up and loss of mass on a sensor chip optically.

pKd: −log10 of the molar value.

The substance “CSFV E2 ectodomain (E2^ED-His) (domain or fragment)” showed a pKd of 5.79.

As usually defined, the pKd is the Kd on a negative log10 scale, so that one unit is a factor of ten. Low readings indicate a high Kd, high ones a low Kd.

These data come from article PMC7144274.
